Laboratory results as given in patent EP4428150A1 (Peptide Logic LLC, dated 2024).
Where a chain is given by its changes, count along the chain named. In names and notes the source's numbering stands.

Columns and labels:
human prolactin [1] = biological target: T1, human prolactin (human, UniProt P01236 29-227); experiment: cell-based or functional assay
T1 sequence (looked up): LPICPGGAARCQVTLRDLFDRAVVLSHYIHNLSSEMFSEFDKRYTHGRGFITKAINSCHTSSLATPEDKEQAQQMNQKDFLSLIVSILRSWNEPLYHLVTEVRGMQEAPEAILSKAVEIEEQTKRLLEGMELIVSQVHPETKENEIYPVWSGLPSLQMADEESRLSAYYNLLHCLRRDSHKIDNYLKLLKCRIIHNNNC

cynomolgus monkey PRL [2] = biological target: T2, cynomolgus monkey PRL (cynomolgus monkey, UniProt A0A2K5X975 30-228); experiment: cell-based or functional assay
T2 sequence: T1 sequence (looked up) with A9V, R43Q, K53R, A64P, Q106E, S151T

mouse PRL [3] = biological target: T3, mouse PRL (mouse, UniProt P06879 30-226); experiment: cell-based or functional assay
T3 sequence (looked up): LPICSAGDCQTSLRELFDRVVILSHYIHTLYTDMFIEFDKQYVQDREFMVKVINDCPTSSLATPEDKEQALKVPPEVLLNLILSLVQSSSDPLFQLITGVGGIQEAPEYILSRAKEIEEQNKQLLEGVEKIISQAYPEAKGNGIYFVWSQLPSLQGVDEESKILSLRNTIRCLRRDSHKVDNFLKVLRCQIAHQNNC

human growth hormone = human growth hormone (human, UniProt P01241 27-217); experiment: cell-based or functional assay
Chain of human growth hormone (P01241 27-217 limits assumed): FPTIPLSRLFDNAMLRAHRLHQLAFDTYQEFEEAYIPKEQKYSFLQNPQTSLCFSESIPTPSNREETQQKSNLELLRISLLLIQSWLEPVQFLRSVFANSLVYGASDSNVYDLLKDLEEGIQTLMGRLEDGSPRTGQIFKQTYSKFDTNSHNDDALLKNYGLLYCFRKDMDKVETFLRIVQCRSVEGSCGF

human placental lactogen = human placental lactogen (human, UniProt P0DML2 27-217); experiment: cell-based or functional assay
Chain of human placental lactogen (P0DML2 27-217 limits assumed): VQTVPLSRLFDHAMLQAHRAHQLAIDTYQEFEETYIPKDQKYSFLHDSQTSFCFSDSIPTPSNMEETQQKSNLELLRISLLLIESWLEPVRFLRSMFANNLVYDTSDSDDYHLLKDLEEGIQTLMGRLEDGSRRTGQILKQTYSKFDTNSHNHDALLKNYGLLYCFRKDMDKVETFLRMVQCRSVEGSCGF

cynomolgus monkey PRL [4] = biological target: T2, cynomolgus monkey PRL; experiment: bio-layer interferometry (Octet-RED96), antibody captured on anti-human IgG Fc sensors, 1:1 fit
human prolactin [5] = biological target: T1, human prolactin; experiment: bio-layer interferometry (Octet-RED96), antibody captured on anti-human IgG Fc sensors, 1:1 global fit
mouse PRL [6] = biological target: T3, mouse PRL; experiment: bio-layer interferometry (Octet-RED96), antibody captured on anti-human IgG Fc sensors; kinetics not determined

B1: Antibody 37 (antibody, human IgG4 S228P, kappa, V domains shown)
VH: QVQLVQSGAEVKKPGASVKVSCKASGYTFSNFWIEWVRQAPGQRLEWMGEIFPGTGSTYYTEKFKVRVTITRDTSASTAYMELSSLRSEDTAVYYCARRGYSDSWFAHWGQGTLVTVSS
VL: DIQMTQSPSSLSASVGDRVTITCRASESVDMYGKSFMHWYQQKPGKAPKLLIYRASTLESGVPSRFSGSGSGTDFTLTISSLQPEDFATYYCQQNVEAPLTFGGGTKVEIKR
notes: Humanized IgG4(S228P), IGHV1-3 heavy and IGKV1-39 light frameworks; also called humanized anti-hPRL antibody
For B1, the “IC50 in the in vitro CHO-hPRLR phospho-STAT5 cell signaling assay” value (“IC50” below) (human prolactin [1]) was 3.1 nM, the “IC50” value (cynomolgus monkey PRL [2]) was 4.7 nM and the “IC50” value (mouse PRL [3]) was over 150 nM. For the same binder, the “IC50” value (human growth hormone) was over 150 nM, the “IC50” value (human placental lactogen) was over 3620 nM and the Kd (cynomolgus monkey PRL [4]) was 0.565 nM. For the same binder, the koff (cynomolgus monkey PRL [4]) was 0.000307 s⁻¹, the kon (cynomolgus monkey PRL [4]) was 543000 M⁻¹ s⁻¹ and the Kd (human prolactin [5]) was 0.621 nM. It also gave a koff (human prolactin [5]) of 0.000215 s⁻¹, a kon (human prolactin [5]) of 347000 M⁻¹ s⁻¹ and a Kd (mouse PRL [6]) of over 100 nM.
